Where two headings read alike, the source gives them in different places.
How the values were obtained:
[1] = biological target: T1, human PD-1 expressed on cells (HuT78/PD-1, NK92MI/PD-1) (human, UniProt Q15116 25-288); experiment: cell-based or functional assay
PD-1-EC/Fc = biological target: T2, PD-1-EC/Fc (human); experiment: SPR (BIAcore T-200), mAb captured on anti-mouse Fc chip, PD-1/Fc injected
T2 construct: also called PD-1/Fc
Protocol: Anti-mouse Fc CM5 biosensor chip (GE Healthcare) was generated using a standard primary amine coupling protocol. PD-1 mAbs at 0.3 µg/ml were captured on anti-mouse Fc surface for 1 min at 10 µl/min. […] Association rates (Kₐ or kₒₙ) and dissociation rates (Kd or koff) were calculated using the one-to-one Langmuir binding model (BIA Evaluation Software, GE Life Sciences). The equilibrium dissociation constant (KD) was calculated as the ratio koff/kₒₙ.

[2] = biological target: P3Z chimeric PD-1 receptor on HuT78/P3Z cells (human); experiment: cell-based or functional assay
[3] = biological target: T1, human PD-1 expressed on cells …; experiment: FACS on PD-1-expressing cells
[4] = biological target: T1, human PD-1 expressed on cells …; experiment: cell-based or functional assay; remark: listed apart in the source

T2 sequence (Q15116 21-168): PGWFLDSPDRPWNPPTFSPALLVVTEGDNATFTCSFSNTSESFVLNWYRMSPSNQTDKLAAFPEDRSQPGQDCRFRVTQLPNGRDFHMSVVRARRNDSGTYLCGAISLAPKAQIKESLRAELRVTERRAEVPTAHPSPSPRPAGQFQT
T1 sequence (Q15116 25-288): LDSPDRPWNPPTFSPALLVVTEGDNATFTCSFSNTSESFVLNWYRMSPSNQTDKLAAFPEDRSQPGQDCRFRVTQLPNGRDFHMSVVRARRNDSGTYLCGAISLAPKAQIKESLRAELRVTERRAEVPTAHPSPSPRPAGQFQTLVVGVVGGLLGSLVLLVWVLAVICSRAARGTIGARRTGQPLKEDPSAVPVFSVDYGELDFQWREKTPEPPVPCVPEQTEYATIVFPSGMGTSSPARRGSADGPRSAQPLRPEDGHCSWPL
Sequence of P3Z chimeric PD-1 receptor on HuT78/P3Z cells (human) (chain, as listed by the source mutant limits assumed): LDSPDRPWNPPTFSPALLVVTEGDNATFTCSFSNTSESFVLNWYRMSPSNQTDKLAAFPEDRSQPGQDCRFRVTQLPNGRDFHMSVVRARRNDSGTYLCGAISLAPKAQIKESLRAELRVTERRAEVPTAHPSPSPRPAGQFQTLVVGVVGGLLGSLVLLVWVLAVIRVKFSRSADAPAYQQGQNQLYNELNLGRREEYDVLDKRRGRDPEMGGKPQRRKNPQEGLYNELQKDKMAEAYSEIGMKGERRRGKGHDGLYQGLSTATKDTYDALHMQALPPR

| Assay-1, IL-2 release HuT78/PD-1 + HEK293/OS8/PD-L1: Baseline [1] | Inhibition of IL-2 secretion, HuT78/P3Z + HEK293/PD-L1: IC50 [2] | Assay-1, IL-2 release HuT78/PD-1 + HEK293/OS8/PD-L1: Baseline [4] | Binder | other results |
| --- | --- | --- | --- | --- |
| 242 pg/mL | 0.039 µg/mL |  | murine mAb 326 (antibody, V domains shown, Murine hybridoma IgG; also called mu326) VH: QIQLVQSGPELKKPGETVKISCKASGYTFTNYGMNWVKQAPGKGLKWMGWINNNNGEPTYAEEFKGRFAFSLETSASTAYLQINNLKNEDTATYFCARDVMDYWGQGTSVTVSS VL: DIVLTQSPASLAVSLGQRATISCRASESVDNYGYSFMHWYQQKPGQPPQLLIYRASNLESGIPARFSGSGSRTGFTLTINPVEADDVATYYCQQSKEYPTFGGGTKLEVK | Kd (PD-1-EC/Fc): 324 pM; koff (PD-1-EC/Fc): 7.79e-05 s⁻¹; kon (PD-1-EC/Fc): 240000 M⁻¹ s⁻¹ |
|  | 0.083 µg/mL | 98 pg/mL | murine mAb 317 (antibody, V domains shown) VH: QVQLKESGPGLVAPSKNLSITCTVSGFSLTSYGVHWIRQPPGKGLEWLGVIWAGGSTNYNSALMSRLSISKDNSRSQVFLRMNSLQTDDTAMYYCARAYGNYWYIDVWGAGTTVTVSS VL: DIVMTQTPKFLLVSAGDRVTITCKASQSVSNDVAWYQQKPGQSPKLLINYAFHRFTGVPDRFTGSGYGTDFIFTISTVQAEDLAVYFCHQAYSSPYTFGGGTKLEMK |  |

More lines, now with the values behind:

| Binder | Assay-1, IL-2 release HuT78/PD-1 + HEK293/OS8/PD-L1: Baseline [1] | Inhibition of IL-2 secretion, HuT78/P3Z + HEK293/PD-L1: IC50 [2] | Assay-1, IL-2 release HuT78/PD-1 + HEK293/OS8/PD-L1: Baseline [4] | other results |
| --- | --- | --- | --- | --- |
| hu326-1 (humanized, human IgG2/kappa) (antibody, V domains shown, not shown: a dimerising Fc or GST) VH: QVQLVQSGSELKKPGASVKVSCKASGYTFTNYGMNWVRQAPGQGLEWMGWINNNNGEPTYAQGFRGRFVFSLDTSASTAYLQISSLKTEDTAVYFCARDVMDYWGQGTTVTVSS VL: DIVLTQSPASLAVSPGQRATITCRASESVDNYGYSFMHWYQQKPGQPPKLLIYRASNLESGVPARFSGSGSRTDFTLTINPVEANDTANYYCQQSKEYPTFGGGTKVEIKR | 283 pg/mL |  |  |  |
| ch326 (chimeric antibody from mu326, human IgG2/kappa) (antibody, V domains shown, domain: human Ig kappa C-region; not shown: human IgG2 constant region) VH: QIQLVQSGPELKKPGETVKISCKASGYTFTNYGMNWVKQAPGKGLKWMGWINNNNGEPTYAEEFKGRFAFSLETSASTAYLQINNLKNEDTATYFCARDVMDYWGQGTSVTVSS VL: DIVLTQSPASLAVSLGQRATISCRASESVDNYGYSFMHWYQQKPGQPPQLLIYRASNLESGIPARFSGSGSRTGFTLTINPVEADDVATYYCQQSKEYPTFGGGTKLEVKR | 250 pg/mL |  |  | EC50 [3]: 0.72 µg/mL |
| hu317-1 (humanized, human IgG2/kappa) (antibody, V domains shown, not shown: a dimerising Fc or GST) VH: QVQLQESGPGLVKPSETLSLTCTVSGFSLTSYGVHWIRQPPGKGLEWLGVIWAGGSTNYNPSLKSRLTISKDNSKSQVSLKMSSVTAADTAVYYCARAYGNYWYIDVWGQGTTVTVSS VL: DIVMTQSPDSLAVSLGERATINCKASQSVSNDVAWYQQKPGQPPKLLINYAFHRFTGVPDRFSGSGYGTDFTLTISSLQAEDVAVYYCHQAYSSPYTFGGGTKLEIKR |  |  | 91 pg/mL |  |
| ch317 (chimeric antibody from mu317, human IgG2/kappa) (antibody, V domains shown, not shown: a dimerising Fc or GST) VH: QVQLKESGPGLVAPSKNLSITCTVSGFSLTSYGVHWIRQPPGKGLEWLGVIWAGGSTNYNSALMSRLSISKDNSRSQVFLRMNSLQTDDTAMYYCARAYGNYWYIDVWGAGTTVTVSS VL: DIVMTQTPKFLLVSAGDRVTITCKASQSVSNDVAWYQQKPGQSPKLLINYAFHRFTGVPDRFTGSGYGTDFIFTISTVQAEDLAVYFCHQAYSSPYTFGGGTKLEMKR |  |  | 82 pg/mL |  |

From patent publication US20230303689A1 (published 2023)
